Assay results taken from patent publication US20180318417A1 (COMPASS THERAPEUTICS, published 2018).

B1: PID-90 (monospecific anti-CD137; Urelumab Fab domain, human IgG1 constant domain) (antibody, V domains shown)
VH: QVQLQQWGAGLLKPSETLSLTCAVYGGSFSGYYWSWIRQSPEKGLEWIGEINHGGYVTYNPSLESRVTISVDTSKNQFSLKLSSVTAADTAVYYCARDYGPGNYDWYFDLWGRGTLVTVSS
VL: EIVLTQSPATLSLSPGERATLSCRASQSVSSYLAWYQQKPGQAPRLLIYDASNRATGIPARFSGSGSGTDFTLTISSLEPEDFAVYYCQQRSNWPPALTFGGGTKVEIKR
notes: also called PID90 (CD137)
B2: PID-2 (monospecific anti-PD-1; Pembrolizumab Fab domain, human IgG1 constant domain) (antibody, V domains shown)
VH: QVQLVQSGVEVKKPGASVKVSCKASGYTFTNYYMYWVRQAPGQGLEWMGGINPSNGGTNFNEKFKNRVTLTTDSSTTTAYMELKSLQFDDTAVYYCARRDYRFDMGFDYWGQGTTVTVSS
VL: EIVLTQSPATLSLSPGERATLSCRASKGVSTSGYSYLHWYQQKPGQAPRLLIYLASYLESGVPARFSGSGSGTDFTLTISSLEPEDFAVYYCQHSRDLPLTFGGGTKVEIKR
notes: also called PID2 (PD-1)
B3: PID-7 (bispecific Her2/PD-1 MIAC; Pembrolizumab IgG1 with Trastuzumab scFv at the heavy chain C-termini) (bispecific antibody)
heavy: not shown
light: EIVLTQSPATLSLSPGERATLSCRASKGVSTSGYSYLHWYQQKPGQAPRLLIYLASYLESGVPARFSGSGSGTDFTLTISSLEPEDFAVYYCQHSRDLPLTFGGGTKVEIKRTVAAPSVFIFPPSDEQLKSGTASVVCLLNNFYPREAKVQWKVDNALQSGNSQESVTEQDSKDSTYSLSSTLTLSKADYEKHKVYACEVTHQGLSSPVTKSFNRGEC
notes: also called α-Her2/α-PD-1
B4: PID-92 (bispecific Her2/CD137 MIAC; Urelumab IgG1 with Trastuzumab scFv at the heavy chain C-termini) (bispecific antibody)
heavy: not shown
light: not shown
notes: also called α-Her2/α-CD137 MIAC; PID92 [Her2/CD137]

How the values were obtained:
[1] = biological target: T1, Recombinant human CD137 Fc fusion protein (Sino Biological) (human, UniProt Q07011 24-186); experiment: ForteBio Octet BLI; antigen-Fc on Protein A sensor, 100 nM construct
T1 construct: not shown: Fc part of the bought fusion protein
Protocol: (§1) Antigen binding of MIAC constructs were analyzed using ForteBio Octet. […] All antigens were reconstituted in PBS at the final concentration of 0.25 ug/ul. […] Association proceeded by dipping sensors in 100 nM MIAC constructs for 5 minutes and disassociation occurred in blank kinetics buffer for 5 minutes. For CD3 epsilon binding, antigen was immobilized on Ni-NTA sensors; association was performed in 50 nM MIAC constructs. Binding data were analyzed using ForteBio Data Analysis 9.0 software.

[2] = biological target: T2, Recombinant human PD-1 Fc fusion protein (Sino Biological) (human, UniProt Q15116 25-167); experiment: ForteBio Octet BLI; antigen-Fc on Protein A sensor, construct in solution
T2 construct: not shown: Fc part of the bought fusion protein
T2 sequence (Q15116 25-167 limits assumed): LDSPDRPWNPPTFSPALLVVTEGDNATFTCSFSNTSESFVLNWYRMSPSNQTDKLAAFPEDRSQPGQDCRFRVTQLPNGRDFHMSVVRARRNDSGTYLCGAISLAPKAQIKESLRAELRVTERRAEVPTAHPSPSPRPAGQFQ

[3] = biological target: T3, Recombinant human Her2 Fc fusion protein (Sino Biological) (human, UniProt P04626 23-652); experiment: as above
T3 construct: not shown: Fc part of the bought fusion protein

[4] = biological target: T1, Recombinant human CD137 Fc fusion …; experiment: as above
[5] = biological target: T2, Recombinant human PD-1 Fc fusion …; experiment: ForteBio Octet BLI; antigen-Fc on Protein A sensor, 100 nM construct
Protocol: as §1

Binder | Kd [1] [nM] | binding result [2] | binding result [3] | binding result [4] | Kd [5] [nM]
B1 | 0.7 | no binding (tested: 100 nM) | no binding (tested: 100 nM) | – | –
B2 | – | – | no binding (tested: 100 nM) | no binding (tested: 100 nM) | –
B3 | – | – | – | no binding (tested: 100 nM) | 0.12
B4 | 0.23 | no binding (tested: 100 nM) | – | – | –
